# IntAct's records for PubMed 22995871
# Biological target: mare1_mouse Mapre1 (UniProt Q61166)
# Sequence (Q61166 whole entry): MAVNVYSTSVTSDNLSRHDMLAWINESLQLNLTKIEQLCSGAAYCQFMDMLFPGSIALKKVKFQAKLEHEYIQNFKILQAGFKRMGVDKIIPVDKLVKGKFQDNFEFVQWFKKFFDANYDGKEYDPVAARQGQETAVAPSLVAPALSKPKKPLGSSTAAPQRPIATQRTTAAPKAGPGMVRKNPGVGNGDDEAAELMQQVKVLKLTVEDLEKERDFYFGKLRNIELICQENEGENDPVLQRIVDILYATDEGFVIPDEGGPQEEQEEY
row,effect of a mutation on the interaction,Substance
1,disrupting interaction,"Dystonin (Homo sapiens), Q03001 D7250A"
2,disrupting interaction,"Dystonin (Homo sapiens), Q03001 D7248A"
3,disrupting interaction,"Dystonin (Homo sapiens), Q03001 D7246A"
